Assay results from patent publication US20050074865.

Assays:
[1] = target: recombinant human TNFα (RDI) (UniProt P01375)
[2] = target: recombinant human TNFα (RDI), P01375
Chain of recombinant human TNFα (RDI), P01375 (P01375 77-233): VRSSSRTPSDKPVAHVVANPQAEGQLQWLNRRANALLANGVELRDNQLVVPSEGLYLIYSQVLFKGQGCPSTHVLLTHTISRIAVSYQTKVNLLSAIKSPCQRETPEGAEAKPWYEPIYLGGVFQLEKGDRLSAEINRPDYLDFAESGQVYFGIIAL

Chain of recombinant human TNFα (RDI) (P01375 77-233): as above

B1: ADAMTS4 (enzyme, UniProt O75173 213-837, looked up, species assumed)
A disintegrin and metalloproteinase with thrombospondin motifs 4: FASLSRFVETLVVADDKMAAFHGAGLKRYLLTVMAAAAKAFKHPSIRNPVSLVVTRLVILGSGEEGPQVGPSAAQTLRSFCAWQRGLNTPEDSDPDHFDTAILFTRQDLCGVSTCDTLGMADVGTVCDPARSCAIVEDDGLQSAFTAAHELGHVFNMLHDNSKPCISLNGPLSTSRHVMAPVMAHVDPEEPWSPCSARFITDFLDNGYGHCLLDKPEAPLHLPVTFPGKDYDADRQCQLTFGPDSRHCPQLPPPCAALWCSGHLNGHAMCQTKHSPWADGTPCGPAQACMGGRCLHMDQLQDFNIPQAGGWGPWGPWGDCSRTCGGGVQFSSRDCTRPVPRNGGKYCEGRRTRFRSCNTEDCPTGSALTFREEQCAAYNHRTDLFKSFPGPMDWVPRYTGVAPQDQCKLTCQAQALGYYYVLEPRVVDGTPCSPDSSSVCVQGRCIHAGCDRIIGSKKKFDKCMVCGGDGSGCSKQSGSFRKFRYGYNNVVTIPAGATHILVRQQGNPGHRSIYLALKLPDGSYALNGEYTLMPSPTDVVLPGAVSLRYSGATAASETLSGHGPLAQPLTLQVLVAGNPQDTRLRYSFFVPRPTPSTPRPTPQDWLHRRAQILEILRRRPWAGRK
**Q.** Which “inactivation of TNFα bioactivity, L929 cytotoxicity bioassay after overnight digestion” value [1] does the source give for B1 here?
**A.** Its value is “ADAMTS4 (column: Proteases that did not inactivate TNF)”.

B2: mesotrypsin, activated with enterokinase (C-terminal myc and His6 tags, expressed from pDEST40) (protein)
chain: IVGGYTCEENSLPYQVSLNSGSHFCGGSLISEQWVVSAAHCYKTRIQVRLGEHNIKVLEGNEQFINAAKIIRHPKYNRDTLDNDIMLIKLSSPAVINARVSTISLPTAPPAAGTECLISGWGNTLSFGADYPDELKCLDAPVLTQAECKASYPGKITNSMFCVGFLEGGKDSCQRDSGGPVVCNGQLQGVVSWGHGCAWKNRPGVYTKVYNYVDWIKDTIAANSEQKLISEEDLNSAVDHHHHHH
**Q.** Which “cleavage of TNF, Western blot with anti-TNF antibody after overnight incubation” value [2] does the source give for B2 here?
**A.** The value was “but not by enzyme (mesotrypsin) to an appreciatable degree”.

**Q.** And the “inactivation of TNF bioactivity, L929 bioassay after overnight digestion, 100 nM mesotrypsin and 100 nM TNF” value [2]?
**A.** Its value is “at equimolar ratios, mesotrypsin achieved only marginal inactivation of TNF in solution”.

**Q.** And the “inactivation of TNF bioactivity, L929 bioassay after overnight digestion, mesotrypsin at 86, 43 and 22 nM with 100 nM TNF” value [2]?
**A.** The value was “at these concentrations, the enzyme mesotrypsin, is either inactive or marginally active towards TNF”.

B3: Cathepsin G (enzyme, UniProt P08311 21-244, looked up, species assumed)
Cathepsin G: IIGGRESRPHSRPYMAYLQIQSPAGQSRCGGFLVREDFVLTAAHCWGSNINVTLGAHNIQRRENTQQHITARRAIRHPQYNQRTIQNDIMLLQLSRRVRRNRNVNPVALPRAQEGLRPGTLCTVAGWGRVSMRRGTDTLREVQLRVQRDRQCLRIFGSYDPRRQICVGDRRERKAAFKGDSGGPLLCNNVAHGIVSYGKSSGVPPEVFTRVSSFLPWIRTTMRS
**Q.** With B3 as the protein, how does the “inactivation of TNFα bioactivity, L929 cytotoxicity bioassay after overnight digestion” value [1] read?
**A.** The value was “Cathepsin G (column: Proteases that did not inactivate TNF)”.
